# Test: soluble on expression in E. coli; label from the status in PepcDB or PDB records
row,Sequence,soluble on expression in E. coli
1,NVSVLNFGNTPVSFRQDGFLNATAIASHFGKLPKDYLKSEQTQQYISALAENLSVRRKILTEANQIVIVKRGGSEQGTWLHPKLAIHFARWLNPKFAVWCDEQIEILLNGKISDGI,soluble
2,PADFNGTWEMLSNDNFEDVMKALDIDFATRKIAVHLKQTKVIVQNGDKFETKTLSTFRNYEVNFVIGEEFDEQTKGLDNRTVKTLVKWDGDKLVCVQKGEKENRGWKQWIEGDLLHLEIHCQDKVCHQVFKKKN,soluble
3,PATSRFYEQHADCLAEQYTSLKFEDVHASWRAFWPQARDRVLDVGAGSGRDAKWMAEHGCEVIAIEPAQALLRFGKSYCGDSVTWLEDGLPKLEKTINLGFRFDLILVSAVWMHLAPTHRERAFRKLANLLAPNGRLVISLRHGDFSDGRKAYPVSVEELEKFAKNRALMVRNVSLDDDQLQ,not soluble
4,PCFALTGPEAGSDAGGIPDQGVVCYGMYDGEEVLGVRVSWNKRYITLAPVATVLGLAFKLQDPDGLLGDKKDVGITCALIPADHDGVEIGERHDPLGSAFMNGPTRGEDVFIPMDWLIGG,not soluble
5,PDATSKKVVPLGVEIYEINGPFFFGVADRLKGVLDVIEETPKVFILRMRRVPVIDATGMHALWEFQESCEKRGTILLLSGVSDRLYGALNRFGFIEALGEERVFDHIDKALAYAKLLVETAEERGRES,soluble
6,PDYIYAKDTAGRFLIANEVTVADNGLESLRDLVGKTDFDLHPHEFAQAVADTERRVLETGEPIFGIEERAIVTKDRDRWLMTSKVPLRSKSGRIIGIVGISRD,not soluble
7,PEITGQVSLPPGKRTNLRKTGSERIAHGMRVKFNPLPLALLLDSSLEGEFDLVQRIIYEVDDPSLPNDEGITALHNAVCAGHTEIVKFLVQFGVNVNAADSDGWTPLHCAASCNNVQVCKFLVESGAAVFAMTYSDMQTAADKCEEMEEGYTQCSQFLYGVQEKMGIMNKGVIYALWDYEPQNDDELPMKEGDCMTIIHREDEDEIEWWWARLNDKEGYVPRNLLGLYPRIKPRQRSLA,soluble
8,PEKKKRKRGSRGGKKGRKSRIANIPNFEQSLKNLVVSEKILGYGSSGTVVFQGSFQGRPVAVKRMLIDFCDIALMEIKLLTESDDHPNVIRYYCSETTDRFLYIALELCNLNLQDLVESKNVSDENLKLQKEYNPISLLRQIASGVAHLHSLKIIHRDLKPQNILVSTSSRFTADQQTGAENLRILISDFGLCKKLDSGQSSFRTNLNNPSGTSGWRAPELLEESTKRRLTRSIDIFSMGCVFYYILSKGKHPFGDKYSRESNIIRGIFSLDEMKCLHDRSLIAEATDLISQMIDHDPLKRPTAMKVLRHPLFWPKSKKLEFLLKVSDRLEIENRDPPSALLMKFDAGSDFVIPSGDWTVKFDKTFMDNLERYRKYHSSKLMDLLRALRNKYHHFMDLPEDIAELMGPVPDGFYDYFTKRFPNLLIGVYMIVKENLSDDQILREFLYS,soluble
9,PELADPTPYDIFGIPKAGSGNPKLDKKSLKKKYHRYVKLYHPDHSDNIQIFSSEKVTNSDSKSPLLLTSSEKLHRFKVISQAYDILCDPKKKIVYDTTRQGW,not soluble
10,PELPTCLTRRLADYATEKPLVRLFFQGEEATVPFISQTSRELNMDINILLANIDRFDGVTCGVLVVELTANPLLLEAFINRCEQAGITVEVLGYVLPDGL,not soluble
11,PEMQSMIVAEINPAYRSLIADEPQIAPLLQDKRVEIVLDDGRKWLRRHPDEKFDLILMNTTWYWRAYSTNLLSAEFLKQVQSHLTPDGIVMFNTTHSPHAFATAVHSIPYAYRYGHMVVGSATPVVFPNKELLKQRLSRLIWPESGRHVFDSSTVDAAAQKVVSRMLIQMTEPSAGAEVITDDNMIVEYKYGRGI,not soluble
12,PHLAFFAFAGALGFAGWRQSKKPVQDTQIEQVEALSQAMQEEDTPLTWDDIPHVHTLSLALGYRLVHLVNKDQGAPLSQRIRGVRRNLSEQVGFLLPEVRIRDNLSLKPNQYTISLNGEVIEQGFIEPERLMAIAVGDTYGEIDGILGSDPAYQLPAVWIEHQDKAKALNMGYQVVDDGTVIATHISKIMKTNLAELFTHDDVEAMTQRLTQQAPKLAEALAAALNPAQQLKVYRQLLLDQVPLKDIRTIANTMLESSENTKDPILLAADVRCALKRTLVNLIAGQKPELNVYALSDELEQMLLTSLQQAQASGTVVLDSFPIEPNILGQFQQNLPLIRQQLKQQGLPPILLVMPQLRPLLARYARTFTQGLAVLSYNEIPENKQINVVGNLG,not soluble
13,PHSHPALTPEQKKELSDIAHRIVAPGKGILAADESTGSIAKRLQSIGTENTEENRRFYRQLLLTADDRVNPCIGGVILFHETLYQKADDGRPFPQVIKSKGGVVGIMVDKGVVPLAGTNGETTTQGLDGLSERCAQYKKDGADFAKWRCVLKIGEHTPSALAIMENANVLARYASICQQNGIVPIVEPEILPDGDHDLKRCQYVTEKVLAAVYKALSDHHIYLEGTLLKPNMVTPGHACTQKYSHEEIAMATVTALRRTVPPAVTGVTFLSGGQSEEEASINLNAINKCPLLKPWALTFSYGRALQASALKAWGGKKENLKAAQEEYVKRALANSLACQGKYTSSGQAGAAASESLFISNHAY,soluble
14,PIKVDGANINITAAIYDEIQQEMKRAKVSQALFAKVAANKSQGWLCELLRWKENPSPENRTLWENLCTIRRFLNLPQHERDVIYEEES,soluble
15,PILYLHGFRSSPDSFKARLLAQAMHQRGLAGQWQCPQLPASPRQAAELALALAREQLAGQQDPRRLTVIGSSLGGYYATWLAERLGCQAVLLNPAVQAARDLATQVGEHRMYHSDAPFHFLPEYVEELRALYADPLTHPERYFLVAATGDEVLDWREMRDRYPGCRQRIVQGGDHGLSDFPRWMPEVLEFA,not soluble
16,PKTGPTMTKELVFSSNIGQHDLDTKSKQIQQWIEKKYHVQVTIKRRKDAEQSEEETEEIFNQILQTMPDIATFSSRPKAIRGGTASMCVFRHLSKKEEK,soluble
17,PKTVQDLTSVVQTLLQQMQDKFQTISDQIIGRIDDMSSRIDDLEKNIA,soluble
18,PLGSKDNRLLYPKTKIDWGPGENHICLKTPFKNFYVIELFHQAPTFDKTIPLFISDINNSPNLYGIYNYIADHLRHVVLVNNYPVNQINIFGKIVYEQYKEKEFNGVEESYVILVISDFIGIDSKIRVRLSQEQFKEVGLTLDKKNYGKIVELEGEIYNWYDSINVSKKPDRELKVSKITVLSHRPDGLHFEFEQWKKRMEFRKNNLVEPWVFIPTPQRE,soluble
19,PLTSTVNGYRNVGYFAQWGVYGRAFQAKQLDVSGTAKNLTHINYSFGNINNQTLTCFMANKAQGTGPNGSDGAGDAWADFGMGYAADKSVSGKADTWDQPLAGSFNQLKQLKAKNPKLKVMISLGGWTWSKNFSKAAATEASRQKLVSSCIDLYIKGNLPNFEGRGGAGAAAGIFDGIDIDWEWPGTNSGLAGNGVDTVNDRANFKALLAEFRKQLDAYGSTNNKKYVLSAFLPANPADIDAGGWDDPANFKSLDFGSIQGYDLHGAWNPTLTGHQANLYDDPADPRAPSKKFSADKAVKKYLAAGIDPKQLGLGLAAYGRGWTGAKNVSPWGPATDGAPGTYETANEDYDKLKTLGTDHYDAATGSAWRYDGTQWWSYDNIATTKQKTDYIVSKGLGGGMWWELSGDRNGELVGAMSDKFRAAAPGPVTEAAPP,soluble
20,PQEKLIFTLDSADRAYRVLVEAMNEGTATLASDGTILYCNRQFAELTKMSSGAVVGTSIYGFIAPEDAITFKALLKQKNSVGELKFRAQGGTSVPVYLSISSLQSEGSPSAWCLVVTDL,not soluble
21,PRAAGHSEEVLEREASFSLTTIDGEVISLNNVGGDVVILWFMAAWCPSCVYMADLLDRLTEKYREISVIAIDFWTAEALKALGLNKPGYPPPDTPEMFRKFIANYGDPSWIMVMDDGSLVEKFNVRSIDYIVIMDKSSNVLYAGTTPSLGELESVIKSVQGG,soluble
22,PSGTIVGLYTHTDFAKKLSVDIELNYISMGSLFTMNKDTPEQRDYKVSLGYISLPVNLNYCVYKHIHVQVGIQTLALLTAVTEQKYQNVVTKGKNINDFHAIDAGPTIGCYYQFEKGLQLGVRYYRGIQNVVKENMVLYNTGIQFLLTYQF,not soluble
23,PSLSKEAALVHEALVARGLETPLRPPVHEMDNETRKSLIAGHMTEIMQLLNLDLADDSLMETPHRIAKMYVDEIFSGLDYANFPKITLIENKMKVDEMVTVRDITLTSTSEHHFVTIDGKATVAYIPKDSVIGLSKINRIVQFFAQRPQVQERLTQQILIALQTLLGTNNVAVSIDAVHYCVKARGIRDATSATTTTSLGGLFKSSQNTRHEFLRAVRHHN,soluble
24,PSVYDAAAQLTADVKKDLRDSWKVWGSDKKGNGVALMTTLFADNQETIGYFKRLGDVSQGMANDKLRGHSITLMYALQNFIDQLDNPDDLVCVVEKFAVNHITRKISAAEFGKINGPIKKVLASKNFGDKYANAWAKLVAVVQAAL,soluble
25,PTARRDIRFAWSGDTAGQGWGIDDEGMRTYATMAQHQPDFFIHSGDTIYADGPMKDEVEKDGAVIWKNTTLIDEKRKVAETLAEFRGQWKYNLMDEHVQAMNALCPTFFQWDDHEVVNNWSDAKDLSADDRYTEKSVHVLQSRAARAFHEMTPLRITPAEPGRVYRKISYGPMLDVFFLDLRSYRGPNGASMEDEITDQSRILGAEQLAWIKRELAASTATWKVIASDMPIGLIVWDNWKEKAGAEAISNGDHGPAKGRELEIADLLRFIKSAGVRNTVWFTADVHYTAAHHYSPERAQFQDFDPFWEFVSGPLHAGTFGPNDLDRTFGPEVKFVKAPTPEQGVNLPPSMGLQFFGLVDIDAASQQMKVRLMDRGNTELWSVTLDPVLSAI,not soluble
26,PTEFLYTSKIAAISWAATGGRQQRVYFQDLNGKIREAQRGGDNPWTGGSSQNVIGEAKLFSPLAAVTWKSAQGIQIRVYCVNKDNILSEFVYDGSKWITGQLGSVGVKVGSNSKLAALQWGGSESAPPNIRVYYQKSNGSGSSIHEYVWSGKWTAGASFGSTVPGTGIGATAIGPGRLRIYYQATDNKIREHCWDSNSWYVGGFSASASAGVSIAAISWGSTPNIRVYWQKGREELYEAAYGGSWNTPGQIKDASRPTPSLPDTFIAANSSGNIDISVFFQASGVSLQQWQWISGKGWSIGAVVPTGTPAGW,soluble
27,PVGYFTMYRFNFKYPPFDNKKIRQAAMYAIGQEDVMKALVGNPKYWQTCASLWGCGTPFETDIGKDMVVPSNIEKARALLKEAGYDNTPILVMHATDVGTLSAQPVVMAQALRKAGFNVNLAAMDWQSVATRRASKAAPAQGGWNIHNTNWYATDIMDPVRSAPAAANGDNAWFGWPDIPEIEALRTRFALSSDPAEQKKLAEEAQRIGIDEGLYVPLGQMSVPTVYTTKLSGLVHAPVFAFWNVKKAP,not soluble
28,PVNDEVEAVKNMHLIGQSQVAFREWNQKWVDLSLNSFADIENNLFEAEGYNHSFRFLKASHQIDQIESQITLIEEDIAAIRNALADLEKQESKNSGRVLHALDLFEELQHRVAENSEQYGQALDEIEKQLENIQSEFSQFVTLNSSGDPVEAAVILDNTENHILALSHIVDRVPALVTTLSTELPDQLQDLEAGYRKLIDANYHFVETDIEARFHLLYEAFKKNQENIRQLELDNAEYENGQAQEEINALYDIFTREIAAQKVVENLLATLPTYLQHMKENNTLLGEDIARLNKTYLLPETAASHVRRIQTELESFEAAIVEVTSNQEEPTQAYSVLEENLEDLQTQLKDIEDEQISVSERLTQIEKDDINARQKANVYVNRLHTIKRYMEKRNLPGIPQTFLKLFFTASNNTEDLMVELEQKMINIESVTRVLEIATNDMEALETETYNIVQYATLTEQLLQYSNRYRSFDERIQEAFNEALDIFEKEFDYHASFDKISQALEVAEPGVTNRFVTSYEKTRETI,not soluble

# Reference: the DeepSol protein solubility set
